Assay results from patent CN116063469A (UNIV ZHONGSHAN, dated 2023).

Target: T1, 寨卡病毒包膜蛋白的结构域III (ZIKV-EDⅢ抗原) (Zika virus (strain NCBI KU740184.2))
T1 construct: domain: 结构域III (EDIII); also called ZIKV-EDIII; ZIKV EDIII
Test: SPR (OpenSPR, COOH chip), ZIKV-EDIII immobilised, nanobody as analyte, 1:1 model

B1: 纳米抗体Nb-E5 (VHH)
VHH: SDSEVNQEAKPEVKPEVKPETHINLKVSDGSSEIFFKIKKTTPLRRLMEAFAKRQGKEMDSLRFLYDGIRIQADQTPEDLDMEDNDIIEAHREQIGGMAVQLVESGGGLVQPGGSLRLSCKVSGRPFTTYALGWFRQAPGKEREFLTVGAWRGQIFTAESVRGRFTISLDTAKNTFDLQMNSLNIEDTAVYYCAAGSRSSNTPQADPGSFDYWGQGTQVTVSSGAR
notes: no removal of the tag is told, and detection used anti-SMT3 / anti-His antibodies; From a naive alpaca phage library; not shown: 6×His tag at the N-terminus of SUMO (pET-28a-SUMO vector)
Binder B1 has a Kd of 8.22 nM.
